Assay results: publication doi:10.1101/2022.09.13.507797 (bioRxiv, 2022)

B1: CspZ from B. burgdorferi B31 (CspZB31), untagged recombinant protein (natural protein, Borrelia burgdorferi strain B31)
chain: RLNQRNINELKIFVEKAKYYSIKLDAIYNECTGAYNDIMTYSEGTFSDQSKVNQAISIFKKDNKIVNKFKELEKIIEEYKPMFLSKLIDDFAIELDQAVDNDVSNARHVADSYKKLRKSVVLAYIESFDVISSKFVDSKFVEASKKFVNKAKEFVEENDLIALECIVKTIGDMVNDREINSRSRYNNFYKKEADFLGAAVELEGAYKAIKQTLL
B2: histidine-tagged CspZB31 (natural protein, Borrelia burgdorferi strain B31)
chain: B1 chain

How the values were obtained:
[1] = target: T1, mouse factor H (mouse, UniProt P06909 19-1234); assay: SPR
T1 sequence (P06909 19-1234): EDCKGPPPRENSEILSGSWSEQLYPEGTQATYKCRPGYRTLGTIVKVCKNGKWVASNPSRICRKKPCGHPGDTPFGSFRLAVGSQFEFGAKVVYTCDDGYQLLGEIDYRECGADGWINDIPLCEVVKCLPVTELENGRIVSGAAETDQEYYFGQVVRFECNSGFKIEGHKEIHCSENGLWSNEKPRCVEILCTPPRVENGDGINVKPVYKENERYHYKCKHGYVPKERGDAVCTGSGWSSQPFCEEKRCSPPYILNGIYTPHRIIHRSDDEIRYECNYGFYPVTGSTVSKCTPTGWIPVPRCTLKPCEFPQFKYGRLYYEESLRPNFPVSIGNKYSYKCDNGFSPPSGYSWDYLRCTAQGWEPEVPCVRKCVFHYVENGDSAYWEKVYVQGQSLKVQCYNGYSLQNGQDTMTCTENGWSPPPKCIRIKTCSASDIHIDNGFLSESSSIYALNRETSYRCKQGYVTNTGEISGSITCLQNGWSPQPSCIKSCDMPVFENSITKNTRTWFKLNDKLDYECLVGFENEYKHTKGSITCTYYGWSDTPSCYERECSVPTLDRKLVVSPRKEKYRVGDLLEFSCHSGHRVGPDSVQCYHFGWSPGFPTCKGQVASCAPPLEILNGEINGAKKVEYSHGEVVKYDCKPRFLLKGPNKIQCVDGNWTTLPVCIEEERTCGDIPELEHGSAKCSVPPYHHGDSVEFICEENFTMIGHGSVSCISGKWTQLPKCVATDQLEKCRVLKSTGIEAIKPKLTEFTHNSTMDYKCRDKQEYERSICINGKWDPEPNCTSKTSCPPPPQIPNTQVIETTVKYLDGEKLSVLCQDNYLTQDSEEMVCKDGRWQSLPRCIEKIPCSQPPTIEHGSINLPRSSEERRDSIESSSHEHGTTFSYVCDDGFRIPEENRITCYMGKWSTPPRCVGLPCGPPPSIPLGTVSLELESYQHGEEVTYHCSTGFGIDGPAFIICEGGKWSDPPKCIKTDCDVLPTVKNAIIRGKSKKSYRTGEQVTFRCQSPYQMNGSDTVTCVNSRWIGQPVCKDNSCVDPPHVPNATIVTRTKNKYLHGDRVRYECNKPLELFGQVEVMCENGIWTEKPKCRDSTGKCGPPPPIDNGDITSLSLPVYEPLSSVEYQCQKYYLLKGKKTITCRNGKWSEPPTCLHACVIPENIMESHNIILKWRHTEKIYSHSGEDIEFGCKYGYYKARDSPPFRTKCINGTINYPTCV

[2] = target: T1, mouse factor H; assay: ELISA
[3] = target: human factor H (human, UniProt P08603 19-1231); assay: ELISA
Sequence of human factor H (P08603 19-1231): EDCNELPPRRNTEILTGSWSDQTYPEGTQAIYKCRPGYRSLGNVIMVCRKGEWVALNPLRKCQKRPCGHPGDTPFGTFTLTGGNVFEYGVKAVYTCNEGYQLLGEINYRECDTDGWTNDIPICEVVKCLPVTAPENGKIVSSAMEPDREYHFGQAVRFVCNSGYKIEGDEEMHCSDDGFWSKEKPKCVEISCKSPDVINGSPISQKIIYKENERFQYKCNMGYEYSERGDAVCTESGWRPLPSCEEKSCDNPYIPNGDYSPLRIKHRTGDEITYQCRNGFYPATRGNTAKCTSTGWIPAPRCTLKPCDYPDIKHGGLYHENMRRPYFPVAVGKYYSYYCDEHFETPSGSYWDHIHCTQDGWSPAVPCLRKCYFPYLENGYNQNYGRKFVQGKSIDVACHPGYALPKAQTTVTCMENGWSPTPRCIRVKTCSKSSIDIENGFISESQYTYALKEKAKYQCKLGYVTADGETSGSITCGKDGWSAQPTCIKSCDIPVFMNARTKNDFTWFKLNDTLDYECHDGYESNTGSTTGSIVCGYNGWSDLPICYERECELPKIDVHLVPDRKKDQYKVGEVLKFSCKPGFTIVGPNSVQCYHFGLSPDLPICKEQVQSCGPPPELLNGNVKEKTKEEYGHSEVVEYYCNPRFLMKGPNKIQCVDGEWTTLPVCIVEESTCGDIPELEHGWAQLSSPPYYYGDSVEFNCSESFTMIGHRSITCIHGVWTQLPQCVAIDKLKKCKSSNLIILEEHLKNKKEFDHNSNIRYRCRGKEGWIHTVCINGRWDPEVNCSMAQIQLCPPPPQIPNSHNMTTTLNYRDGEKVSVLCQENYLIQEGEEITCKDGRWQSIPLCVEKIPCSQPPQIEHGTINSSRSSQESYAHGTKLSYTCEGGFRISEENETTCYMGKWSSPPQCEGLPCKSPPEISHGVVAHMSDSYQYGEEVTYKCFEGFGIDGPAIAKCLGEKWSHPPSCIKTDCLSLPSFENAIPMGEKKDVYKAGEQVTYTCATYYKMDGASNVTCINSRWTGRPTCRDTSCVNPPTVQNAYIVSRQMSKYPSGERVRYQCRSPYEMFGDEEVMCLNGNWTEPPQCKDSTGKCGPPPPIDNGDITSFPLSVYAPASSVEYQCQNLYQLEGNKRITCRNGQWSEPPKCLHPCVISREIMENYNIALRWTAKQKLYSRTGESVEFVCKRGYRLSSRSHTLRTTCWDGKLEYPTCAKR

Binder | binding result [1] | binding result [2] | binding result [3]
B1 | binds |  | 
B2 |  | binds | binds
